Results: patent US11318209B2, “Targeting macula densa cells as a new therapeutic approach for kidney disease” (MACULA DENSA CELL LLC, priority 2016, dated 2022)
Entries after “also recorded” stand apart in the source; their conditions may differ.

Experiments:
[1] = tested on: Ki67+ proliferating cells in the JGA area; assay: Ki67 immunofluorescence of low salt diet+captopril-treated mouse kidneys; assay type: in vivo
Source text: FIG. 7. Ki67 (red nuclei) immunofluorescence of control (FIG. 7A-FIG. 7B) and low salt diet+captopril-treated mouse kidneys (FIG. 7C-FIG. 7D). In contrast to control untreated (FIG. 7A) and control+7-NI (FIG. 7B), a high density of Ki67+ proliferating cells are visible around the JGA interstitium in response to low salt diet+captopril treatment (FIG. 7C). […] Nuclei were labeled blue with DAPI. n=4 each group, §: P<0.05 versus ctrl, *: P<0.05 versus untreated low salt+captopril.
(§1) The increased density of NG2+ cells was 70% inhibited by the administration of the selective COX-2 inhibitor SC58236 (FIG. 6E).

[2] = tested on: NG2+ cells in the JGA area; assay: NG2 immunofluorescence of low salt diet+captopril-treated mouse kidneys; assay type: in vivo
Source text: FIG. 6. NG2 (FIG. 6A, green) and renin (FIG. 6B, red) immunofluorescence of low salt diet+captopril-treated mouse kidneys. […] Nuclei were labeled blue with DAPI. n=4 each group, *: P<0.05.
as §1

MMDD1 cells = assay: GFP transfection with MMDD1 homing peptide+GFP cDNA complex; assay type: cell-based; settings: overnight incubation, fluorescence microscopy
Source text: FIG. 19. Selective targeting of MD cells with the MMDD1 homing peptide. […] Note the diffuse cytosolic GFP expression in MMDD1 cells indicating successful escape of the endosomes after fusion protein internalization.
In preliminary data, the Inventors identified a MMDD1 homing peptide based on phage-display, used it as targeting domain, and fused to a histidine-rich amphipathic peptide, optimized for DNA binding properties and gene delivery through endosomal escape. The fusiogenic peptide was synthesized:
The peptide was mixed with pcDNA3.1 GFP and incubated for 1 hour at room temperature. The solution was added to cultured MMDD1 cells (MD cell line), HEK293 cells and M-1 cells (collecting duct cell line), and incubated overnight at 37° C. in a humidified atmosphere (95% air and 5% CO2). Transfection was measured by fluorescence microscopy.

[3] = tested on: NG2-derived progenitor cells; assay: Kidney tissue remodeling after 10 days of loop diuretic; assay type: in vivo; settings: 10 days of treatment in an animal model
Source text: FIG. 22. […] Increase in renal cortical mesenchyme-derived cell density (red), remodeling of the entire length of the glomerular (G) arterioles by NG2-derived progenitor cells within 10 days in response to loop diuretics.
The Inventors' initial experimental strategy to show proof-of-principle for this macula densa mechanism was to apply gold-standard whole body approaches to activate this new mechanism (e.g. dietary salt restriction and loop diuretics), which have been known for decades to improve kidney function. One example is the use of the loop diuretic furosemide, which blocks salt-sensing by MD cells and therefore is equivalent to the effects of low dietary salt intake as shown in FIGS. 6-7, 10). […] Furosemide and other loop diuretics have been in human clinical use for decades as efficient anti-hypertensive therapies. In addition to diuretics, the Inventors will explore other small molecules that may have specific MD cell targeting characteristics, and may activate the MD kidney repair program.

renin cell = assay: Renin cell proliferation and migration; assay type: cell-based; settings: not shown
Source text: (§2) CCN1 had no effect on renin cell proliferation and migration (not shown).

cultured GEnCs [4] = assay: Endothelial tube formation assay (in vitro angiogenesis); assay type: cell-based; settings: standard doses of CCN1 and VEGF
Description: FIG. 11. Robust effect of CCN1 on GEnCs: in vitro angiogenesis. Endothelial tube formation assays were performed using cultured GEnCs and standard doses of CCN1 and VEGF. *: P<0.05. Results are shown in FIG. 11A, FIG. 11B, FIG. 11C, FIG. 11D and FIG. 11E.
as §2
In order to reproduce all of these MD-specific protective factors for therapeutic use, the Inventors utilized the existing MMDD1 in vitro cell culture model of MD cells that endogenously produce these factors. Mimicking the in vivo physiological activation of MD cells (low salt diet), the NaCl content of MD tissue culture medium was reduced by half as described earlier. […] The therapeutic strategy with this medium (illustrated in FIG. 21) is the same as above for CCN1, to inject it under the renal capsule for specific kidney targeting.

[5] = tested on: glomerular endothelial cells; assay: Serial MPM imaging of glomerular endothelial cells in Cdh5-Confetti mice; assay type: in vivo, mouse
Description: FIG. 15. Tracking the fate of the same glomerular endothelial cells over time in vivo at the single cell level. FIG. 15A-FIG. 15B: Serial MPM imaging of the same glomerulus (G) in the same Cdh5-Confetti mice was performed daily for one week. Endothelial cell distribution was registered using Z-sectioning of the glomerulus from top to bottom at each time point. Compared to baseline (FIG. 15A) when cells of all Confetti colors (membrane-bound CFP (blue), nuclear GFP (green), cytosolic YFP (yellow) and RFP (red)) were evenly distributed within the glomerulus, monochromatic glomeruli developed as early as 4 days (FIG. 15B) after endothelial injury (L-NAME treatment) indicating the presence of single precursor cell-derived colonies. Note the presence of cells in multiple colors in the afferent arteriole (AA, arrow) at baseline (FIG. 15A) including one GFP+ (green) and one RFP+ (magenta) cell at the terminal segment, and the identically colored intra-glomerular cell colonies (mostly green, some magenta) 4 days later (FIG. 15B). FIG. 15C: Schematic of the three directly adjacent JGA cell types (MD, JG renin, and AA EPCs) forming a functional syntitium via cell-to-cell crosstalk to remodel the glomerulus.

[6] = BalbC Adriamycin mouse model of FSGS; assay type: in vivo
Source text: FIG. 24. The robust protective effects of treatment with recombinant CCN1 or conditioned MD cell media in the BalbC Adriamycin mouse model of FSGS in vivo. FIG. 24A: Albuminuria (albumin/creatinine ratio, ACR) in the various control and treatment groups before ADR-induced kidney injury (baseline), two weeks later before the start of treatments, and 1 and 4 weeks after treatment with saline, recombinant CCN1, control or low salt-conditioned MD cell media. FIG. 24B-FIG. 24C: Trichrome staining of kidney histological sections.
In other work The Inventors tested the effects and therapeutic potential of the aforementioned novel biologicals. The robust protective effects of treatment with recombinant CCN1 or conditioned MD cell media in the BalbC Adriamycin mouse model of human-like focal segmental glomerulosclerosis (FSGS) in vivo is shown in FIG. 24. […] The development of albuminuria, the most important and clinically relevant functional readout of the failing kidneys was measured in the various control and experimental treatment groups before ADR-induced kidney injury (baseline), two weeks later before the start of treatments, and 1 and 4 weeks after treatment with saline, recombinant CCN1, control or low salt-conditioned MD cell media.

cultured GEnCs [7] = assay: GEnC cell proliferation and cell migration (scratch opening assay); assay type: cell-based
sclerotic glomeruli = assay: ADR mouse model of GS, renal subcapsular treatment; assay type: in vivo
Source text: FIG. 17. The effects of CCN1 and MMDD1 conditioned media treatment in the ADR mouse model of GS. FIG. 17A: illustration of study design. FIG. 17B: Effects of CCN1 and MMDD1 media on the number of Ki67+ cells (IF, red) per field. FIG. 17C: Effects of CCN1 and MMDD1 media on the number of p57+ podocytes (IF, red) per glomerulus. Green is autofluorescence for visualization of tissue anatomy.
In other preliminary experiments, mouse (ADR nephropathy resembling human-like FSGS) and rat (PAN-induced FSGS) models of CKD were established. Single renal subcapsular treatment with exogenous recombinant CCN1 was performed at a time point (two weeks after second ADR dose in mice, or after the second dose of PAN in rats) when severe and persistent glomerular pathology was confirmed (FIG. 17A), with subsequent two weeks' follow-up. Animals were placed in metabolic cages weekly for urine collection, and tissues (kidney, aorta, heart, brain, blood) harvested 4 weeks (after first ADR dose in mice), or 2 months (after first PAN dose in rats).
Since the main problem in kidney disease appears to be reduced or absent production of CCN1 by macula densa cells, the Inventors can supplement recombinant CCN1 peptide delivered specifically into the renal parenchyma. In preliminary studies illustrated in FIG. 17, the Inventors used subcapsular injections of recombinant CCN1. However, this is invasive procedure, which would have limited clinical use. A much better non-invasive approach the Inventors are currently testing is to give systemic iv injection of recombinant CCN1 targeted specifically to the kidney blood supply. This is performed by conjugating recombinant CCN1 to a glomerulus homing peptide. The promise and therapeutic benefit of this approach is shown in FIG. 17 in a pre-clinical animal model of CKD.
In order to reproduce all of these MD-specific protective factors for therapeutic use, the Inventors utilized the existing MMDD1 in vitro cell culture model of MD cells that endogenously produce these factors. […]

[8] = low salt diet+captopril treatment for one week

O=[N+]([O-])c1cccc2cn[nH]c12 [7-NI]
proliferation of NG2+ cells [1, 8]: completely abolished | number of Ki67+ cells in the JGA area ([1]; low salt diet+captopril-treated, n=4 each group, P<0.05 versus untreated low salt+captopril): significantly reduced

NS(=O)(=O)c1ccc(-n2nc(C(F)(F)F)cc2-c2ccc(Cl)cc2)cc1 [SC58236]
inhibition of the increased density of NG2+ cells [2, 8]: 70% | number of NG2+ cells in the JGA area ([2]; low salt diet+captopril-treated, n=4 each group, P<0.05): significantly reduced

NH2-ACFNDSDMLCGGGKKHLLAHALHLLALLALHLAHALAHLKKA-NH2 (H-ACFNDSDMLCGGGKKHLLAHALHLLALLALHLAHALAHLKKA-NH2; cysteine pairing not given here) [MMDD1 homing peptide+GFP cDNA complex]
transfection with GFP (MMDD1 cells): successful transfection

NS(=O)(=O)c1cc(C(=O)O)c(NCc2ccco2)cc1Cl [furosemide]
kidney tissue (vascular and glomerular) remodeling [3]: significant kidney tissue remodeling; also recorded: Robust vascular and glomerular remodeling

B1: CCN1: recombinant CCN family member 1, secreted matricellular protein, angiogenic inducer (protein, UniProt O00622 25-381, looked up)
CCN family member 1: TCPAACHCPLEAPKCAPGVGLVRDGCGCCKVCAKQLNEDCSKTQPCDHTKGLECNFGASSTALKGICRAQSEGRPCEYNSRIYQNGESFQPNCKHQCTCIDGAVGCIPLCPQELSLPNLGCPNPRLVKVTGQCCEEWVCDEDSIKDPMEDQDGLLGKELGFDASEVELTRNNELIAVGKGSSLKRLPVFGMEPRILYNPLQGQKCIVQTTSWSQCSKTCGTGISTRVTNDNPECRLVKETRICEVRPCGQPVYSSLKKGKKCSKTKKSPEPVRFTYAGCLSVKKYRPKYCGSCVDGRCCTPQLTRTVKMRFRCEDGETFSKNVMMIQSCKCNYNCPHANEAAFPFYRLFNDIHKFRD
effect on renin cell proliferation and migration (renin cell): no effect | in vitro angiogenesis (tube formation assay) compared with VEGF (cultured GEnCs [4]): more effective | Confetti cell tracing units in glomeruli ([5]; subcapsular treatment for one week): high number of Confetti cells formed monochromatic tracing units | remodeling of the glomerular endothelial layer ([5]; within a few days): rapid and robust remodeling | albuminuria (albumin/creatinine ratio, ACR) ([6]; treatment for 5 consecutive days started two weeks after 8 mg/kg ADR iv, 1 and 4 weeks after treatment): robust decline | glomerulosclerosis and tissue fibrosis (trichrome kidney histology) ([6]; versus control saline-treated): improved pathology | effect on cell proliferation and migration (cultured GEnCs [7]; added to the media of cultured GEnCs): robust dose-dependent effect | effects on GEnCs in presence of blocking antibodies for integrins αvβ3 and VEGF receptor blockers (cultured GEnCs [7]; not shown): almost completely abolished | proteinuria (sclerotic glomeruli; preliminary mouse and rat studies of GS): diminished proteinuria | increase in Ki67+ proliferating cells in glomeruli (sclerotic glomeruli; single renal subcapsular treatment, two weeks' follow-up): > 20 fold | number of p57+ podocytes (sclerotic glomeruli; single treatment, treated versus control groups): significantly increased
